Source: US20250276073A1 (Bicycle, published 2025)
Starred links: 1 amine or outer side, 2 acyl side, 3 side chain; linkers in the order of their positions; H or OH if unused. Positions of bridges follow the written chain, without caps; N, C: chain ends. Non-standard residues stand in square brackets, D forms with d. No end group written: not given here. TATB = O=C(C[*:1])N1CN(C(=O)C[*:2])CN(C(=O)C[*:3])C1; Val(3-OH) = CC(C)(O)[C@H](N)C(=O)O; Hyp = O=C(O)[C@@H]1C[C@@H](O)CN1; Tle = CC(C)(C)[C@H](N)C(=O)O

Target: T1, Recombinant human His-tagged TfR1 (a.a. 89-760) (ACRO Biosystems, CD1-H5243) (human, UniProt P02786 89-760)
T1 construct: range 89-760; Bought protein; Captured and amine-coupled on an NTA chip; also called human TfR1; transferrin receptor 1; not shown: His tag (printed 'Hiss-tagged')
Assay: SPR (Biacore), TfR1 captured/coupled on NTA chip, peptide as analyte

T1 sequence (P02786 89-760 limits assumed): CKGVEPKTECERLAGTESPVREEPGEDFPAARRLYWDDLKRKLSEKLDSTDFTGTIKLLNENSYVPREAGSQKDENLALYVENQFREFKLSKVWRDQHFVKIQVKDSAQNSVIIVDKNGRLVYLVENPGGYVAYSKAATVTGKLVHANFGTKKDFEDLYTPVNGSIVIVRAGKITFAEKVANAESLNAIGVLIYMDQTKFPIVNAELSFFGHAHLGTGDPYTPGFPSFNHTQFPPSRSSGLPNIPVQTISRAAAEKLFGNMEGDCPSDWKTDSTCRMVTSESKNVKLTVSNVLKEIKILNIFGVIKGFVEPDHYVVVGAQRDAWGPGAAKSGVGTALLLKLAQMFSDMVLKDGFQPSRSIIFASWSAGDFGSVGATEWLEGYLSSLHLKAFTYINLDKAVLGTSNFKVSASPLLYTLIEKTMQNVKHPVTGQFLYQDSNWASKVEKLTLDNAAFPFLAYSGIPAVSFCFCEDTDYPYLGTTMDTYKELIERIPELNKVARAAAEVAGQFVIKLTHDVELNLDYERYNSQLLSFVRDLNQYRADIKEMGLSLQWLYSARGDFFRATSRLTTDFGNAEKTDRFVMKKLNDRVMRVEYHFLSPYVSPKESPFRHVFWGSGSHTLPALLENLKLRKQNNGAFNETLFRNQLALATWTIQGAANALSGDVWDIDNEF

Row | Binder | Kd
1 | Ac-CP[Hyp]DAYLGC[Val(3-OH)]SYCEPW-NH2 (linker 1-9-13 via TATB; SMILES CC(=O)N[C@H]1CSCC(=O)N2CN3CN(C2)C(=O)CSC[C@@H](C(=O)N[C@@H](CCC(=O)O)C(=O)N2CCC[C@H]2C(=O)N[C@@H](Cc2c[nH]c4ccccc24)C(N)=O)NC(=O)[C@H](Cc2ccc(O)cc2)NC(=O)[C@H](CO)NC(=O)[C@H](C(C)(C)O)NC(=O)[C@H](CSCC3=O)NC(=O)CNC(=O)[C@H](CC(C)C)NC(=O)[C@H](Cc2ccc(O)cc2)NC(=O)[C@H](C)NC(=O)[C@H](CC(=O)O)NC(=O)[C@@H]2C[C@@H](O)CN2C(=O)[C@@H]2CCCN2C1=O, Bicyclic peptide) [BCY23515] | 85 nM
2 | CPXDAYLGCXSYCEPW (CP[Cis-HyP]DAYLGC[tBuGly]SYCEPW: Cis-HyP at 3, tBuGly at 10; N-terminal acetyl; C-terminal CONH2; Cys 1, 9, 13 bonded to TATB scaffold, Bicyclic peptide) [BCY23184] | 13 nM
3 | Ac-CP[Hyp]DAYNGC[Tle]SYCEPW-NH2 (linker 1-9-13 via TATB; SMILES CC(=O)N[C@H]1CSCC(=O)N2CN3CN(C2)C(=O)CSC[C@@H](C(=O)N[C@@H](CCC(=O)O)C(=O)N2CCC[C@H]2C(=O)N[C@@H](Cc2c[nH]c4ccccc24)C(N)=O)NC(=O)[C@H](Cc2ccc(O)cc2)NC(=O)[C@H](CO)NC(=O)[C@H](C(C)(C)C)NC(=O)[C@H](CSCC3=O)NC(=O)CNC(=O)[C@H](CC(N)=O)NC(=O)[C@H](Cc2ccc(O)cc2)NC(=O)[C@H](C)NC(=O)[C@H](CC(=O)O)NC(=O)[C@@H]2C[C@@H](O)CN2C(=O)[C@@H]2CCCN2C1=O, Bicyclic peptide) [BCY23222] | 58 nM
4 | Ac-CP[Hyp]EAYLGC[Tle]SYCEPW-NH2 (linker 1-9-13 via TATB; SMILES CC(=O)N[C@H]1CSCC(=O)N2CN3CN(C2)C(=O)CSC[C@@H](C(=O)N[C@@H](CCC(=O)O)C(=O)N2CCC[C@H]2C(=O)N[C@@H](Cc2c[nH]c4ccccc24)C(N)=O)NC(=O)[C@H](Cc2ccc(O)cc2)NC(=O)[C@H](CO)NC(=O)[C@H](C(C)(C)C)NC(=O)[C@H](CSCC3=O)NC(=O)CNC(=O)[C@H](CC(C)C)NC(=O)[C@H](Cc2ccc(O)cc2)NC(=O)[C@H](C)NC(=O)[C@H](CCC(=O)O)NC(=O)[C@@H]2C[C@@H](O)CN2C(=O)[C@@H]2CCCN2C1=O, Bicyclic peptide) [BCY23216] | 158 nM
5 | CPXDAYLGCXSYCDPW (CP[HyP]DAYLGC[tBuGly]SYCDPW: HyP at 3, tBuGly at 10; N-terminal acetyl; C-terminal CONH2; Cys 1, 9, 13 bonded to TATB scaffold, Bicyclic peptide) [BCY23230] | 15 nM
6 | Ac-CP[Hyp]DAYEGC[Tle]SYCEPW-NH2 (linker 1-9-13 via TATB; SMILES CC(=O)N[C@H]1CSCC(=O)N2CN3CN(C2)C(=O)CSC[C@@H](C(=O)N[C@@H](CCC(=O)O)C(=O)N2CCC[C@H]2C(=O)N[C@@H](Cc2c[nH]c4ccccc24)C(N)=O)NC(=O)[C@H](Cc2ccc(O)cc2)NC(=O)[C@H](CO)NC(=O)[C@H](C(C)(C)C)NC(=O)[C@H](CSCC3=O)NC(=O)CNC(=O)[C@H](CCC(=O)O)NC(=O)[C@H](Cc2ccc(O)cc2)NC(=O)[C@H](C)NC(=O)[C@H](CC(=O)O)NC(=O)[C@@H]2C[C@@H](O)CN2C(=O)[C@@H]2CCCN2C1=O, Bicyclic peptide) [BCY23221] | 120 nM
7 | Ac-CP[Hyp]DAYDGC[Tle]SYCEPW-NH2 (linker 1-9-13 via TATB; SMILES CC(=O)N[C@H]1CSCC(=O)N2CN3CN(C2)C(=O)CSC[C@@H](C(=O)N[C@@H](CCC(=O)O)C(=O)N2CCC[C@H]2C(=O)N[C@@H](Cc2c[nH]c4ccccc24)C(N)=O)NC(=O)[C@H](Cc2ccc(O)cc2)NC(=O)[C@H](CO)NC(=O)[C@H](C(C)(C)C)NC(=O)[C@H](CSCC3=O)NC(=O)CNC(=O)[C@H](CC(=O)O)NC(=O)[C@H](Cc2ccc(O)cc2)NC(=O)[C@H](C)NC(=O)[C@H](CC(=O)O)NC(=O)[C@@H]2C[C@@H](O)CN2C(=O)[C@@H]2CCCN2C1=O, Bicyclic peptide) [BCY23220] | 72 nM
8 | CPXDAYLGCXSYCEPY (CP[HyP]DAYLGC[tBuGly]SYCEPY: HyP at 3, tBuGly at 10; N-terminal acetyl; C-terminal CONH2; Cys 1, 9, 13 bonded to TATB scaffold, Bicyclic peptide) [BCY23207] | 7.7 nM
9 | CP[Hyp]DAYQGC[Tle]SYCEPW-NH2 (linker 1-9-13 via TATB; not fully specified (N-terminus); printed as CP[HyP]DAYQGC[tBuGly]SYCEPW, Bicyclic peptide) [BCY23223] | 50 nM
10 | Ac-CP[Hyp]DAYSGC[Tle]SYCEPW-NH2 (linker 1-9-13 via TATB; SMILES CC(=O)N[C@H]1CSCC(=O)N2CN3CN(C2)C(=O)CSC[C@@H](C(=O)N[C@@H](CCC(=O)O)C(=O)N2CCC[C@H]2C(=O)N[C@@H](Cc2c[nH]c4ccccc24)C(N)=O)NC(=O)[C@H](Cc2ccc(O)cc2)NC(=O)[C@H](CO)NC(=O)[C@H](C(C)(C)C)NC(=O)[C@H](CSCC3=O)NC(=O)CNC(=O)[C@H](CO)NC(=O)[C@H](Cc2ccc(O)cc2)NC(=O)[C@H](C)NC(=O)[C@H](CC(=O)O)NC(=O)[C@@H]2C[C@@H](O)CN2C(=O)[C@@H]2CCCN2C1=O, Bicyclic peptide) [BCY23218] | 55 nM
11 | Ac-CP[Hyp]DAYTGC[Tle]SYCEPW-NH2 (linker 1-9-13 via TATB; SMILES CC(=O)N[C@H]1CSCC(=O)N2CN3CN(C2)C(=O)CSC[C@@H](C(=O)N[C@@H](CCC(=O)O)C(=O)N2CCC[C@H]2C(=O)N[C@@H](Cc2c[nH]c4ccccc24)C(N)=O)NC(=O)[C@H](Cc2ccc(O)cc2)NC(=O)[C@H](CO)NC(=O)[C@H](C(C)(C)C)NC(=O)[C@H](CSCC3=O)NC(=O)CNC(=O)[C@H]([C@@H](C)O)NC(=O)[C@H](Cc2ccc(O)cc2)NC(=O)[C@H](C)NC(=O)[C@H](CC(=O)O)NC(=O)[C@@H]2C[C@@H](O)CN2C(=O)[C@@H]2CCCN2C1=O, Bicyclic peptide) [BCY23219] | 51 nM
12 | CXXDAYLGCXSYCEPW (not fully specified; C[HyP][HyP]DAYLGC[tBuGly]SYCEPW: HyP at 2 and 3, tBuGly at 10; N-terminal acetyl; C-terminal CONH2; Cys 1, 9, 13 bonded to TATB scaffold, Bicyclic peptide) [BCY23180] | 50 nM
13 | CPXDAYLGCXSYCEPX (CP[HyP]DAYLGC[tBuGly]SYCEP[DOPA]: HyP at 3, tBuGly at 10, DOPA at 16; N-terminal acetyl; C-terminal CONH2; Cys 1, 9, 13 bonded to TATB scaffold, Bicyclic peptide) [BCY23208] | 6 nM
14 | CPXDAYLGCXSYCEXW (CP[HyP]DAYLGC[tBuGly]SYCE[HyP]W: HyP at 3 and 15, tBuGly at 10; N-terminal acetyl; C-terminal CONH2; Cys 1, 9, 13 bonded to TATB scaffold, Bicyclic peptide) [BCY23204] | 9 nM
